# Assay results: publication PMC6784373, “Development of a Label-Free Electrochemical Aptasensor for the Detection of Tau381 and its Preliminary Application in AD and Non-AD Patients’ Sera”
# Target: tau381 (1N3R as printed) (human, UniProt P10636-4 1-381)
# Assay: electrochemical aptasensor (DPV, EIS); aptamer immobilized on Au NP/thionin/carboxyl graphene GCE; linear 1.0-100 pM, LOD 0.70 pM (sensor values, not Kd); 0.1 M PBS pH 7.0, 5 uM aptamer for immobilization, 30 min tau381 incubation, DPV -0.6 to 0.2 V; EIS in 10 mM [Fe(CN)6]3-/4-; temperature not stated
# Details: protein: commercial
# Sequence of tau381 (1N3R as printed) (P10636 other isoform, or with tags, fused parts or gaps): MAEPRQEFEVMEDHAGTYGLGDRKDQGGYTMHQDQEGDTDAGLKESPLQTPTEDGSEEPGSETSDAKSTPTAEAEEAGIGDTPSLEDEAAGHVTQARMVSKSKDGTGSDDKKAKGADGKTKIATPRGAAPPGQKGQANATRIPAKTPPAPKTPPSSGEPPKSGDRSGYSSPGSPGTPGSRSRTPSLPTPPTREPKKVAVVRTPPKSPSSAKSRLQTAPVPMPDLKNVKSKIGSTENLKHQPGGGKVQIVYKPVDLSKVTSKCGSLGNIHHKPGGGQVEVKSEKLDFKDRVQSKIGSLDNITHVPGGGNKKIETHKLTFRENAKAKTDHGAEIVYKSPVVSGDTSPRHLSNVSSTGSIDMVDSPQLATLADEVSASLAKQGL
binder,measurement,value
"GCGGAGCGTGGCAGG (ssDNA, 5'-H2N) [tau381 aptamer (5'-amino)]",binding result,binds
